Measurements reported in patent US20220154156A1, “PROTEINS AND METHODS FOR DISRUPTING BACTERIAL COMMUNICATION” (REGENTS OF THE UNIVERSITY OF MINNESOTA, priority 2019, published 2022).

Assays:
[1] = tested on: bacterial communities at the surface of the steel; test: 16S rDNA analysis of microbial community on steel coupons; settings: treated coupons
Method: After photo imaging, on each of the coupon surface, all material including biofilm and tubercles were scraped into a sterile 50 ml polypropylene centrifuge tube (Corning, N.Y., USA) using a steel scraper. A 0.5 g subsample of the surface material from each coupon sample was used for DNA extraction using PowerSoil DNA kit (MoBio Laboratories). The extracted DNA was used to sequence the V4 region of 16S rDNA gene and describe changes in the composition of bacterial communities. DNA samples were quantified with a NanoDrop 2000 Spectrophotometer (Thermo Scientific, Waltham, Mass. USA) and then sent overnight to the University of Minnesota Genomics Center for 16S rDNA sequencing. 30 samples were multiplexed into a single run of Illumina MiSeq paired-end 300 cycles, which was expected to generate a total of 15 million sequences of the 254 bp portions of the 16S rDNA V4 region.
Sequence data were processed and analyzed using the MOTHUR program. To ensure high quality data for analysis, sequence reads containing ambiguous bases, homopolymers >7 bp, more than one mismatch in the primer sequence, or an average per base quality score below 25 were removed. Sequences that only appear once in the total set were assumed to be a result of sequencing error and removed from the analysis. Chimeric sequences were also removed using the UCHIME algorithm within the MOTHUR program. […]

[2] = tested on: Clavibacter michiganensis subsp. Nebraskensis; test: Corn infection assay; format: in vivo; settings: lactonase spray
Method: FIG. 31 show control of plant infections by a single spraying of 1 mL of lactonase solution (10 mg/mL) on corn leaves. The Viking maize seed (40-30UP) were grown in Euro pot (diameter 8 inch) with sterilized soil mixture (50 standard soil/50 Germinating Mix) in a green house under diurnal conditions with 16 hours lights at 22° C. and 8 hours dark at 18° C. Plant leaves were infected with Clabibacter michiganensis subsp. nebraskensis by dipping the clipped leaf into cell suspension ([…]). Shown are duplicates plants for the control treatment (left) and lactonase treatment (right).
Moreover, we specifically established a corn infection assay using the pathogen Clavibacter michiganensis subsp. Nebraskensis.

[3] = tested on: biofilm of complex soil microbial community; test: Biofilm microbial community analysis (16S, MiSeq); format: cell-based
Method: DNA extractions were carried out on biofilms. Submerged wells from the strip-well plates were drained of excess cells/water. Biofilm was scraped from the polypropylene well and put into Powerbead® tubes for DNA extraction (MoBio Powersoil® DNA Extraction Kit). Purified DNA samples were submitted to the University of Minnesota's Genomics Center for 16S rRNA sequencing. Using the Genomics Center platform, each sample underwent amplification, indexing, normalization, pooling, size selection, and final QC for sequencing. The V4 region of the 16s rRNA gene was amplified using primer 515f (5′-GTGCCAGCMGCCGCGGTAA-3′ (SEQ ID NO:14)). After the library preparation steps, it was confirmed all samples passed QC and were submitted for sequencing.
All samples were processed using Mothur v1.35.1. For each sample, 1,250 sequences were used for final analyses. […] Analysis of similarity (ANOSIM) and analysis of molecular variances (AMOVA) were used to evaluate the beta diversity (community composition) among samples using Bray-Curtis dissimilarity matrices (BC) (Bray & Curtis 1957; Clarke 1993). Ordination of Bray-Curtis matrices was performed using principal coordinate analysis (PCoA) to further analyze diversity of sample days throughout the tank (Anderson & Willis 2003). […] All of alpha values evaluated at α=0.05.

B1: SsoPox W263I: improved variant of the hyperthermostable lactonase SsoPox from Sulfolobus solfataricus, exhibiting higher catalytic rates (protein, UniProt Q97VT7 1-314, looked up, variant W263I)
Aryldialkylphosphatase: MRIPLVGKDSIESKDIGFTLIHEHLRVFSEAVRQQWPHLYNEDEEFRNAVNEVKRAMQFGVKTIVDPTVMGLGRDIRFMEKVVKATGINLVAGTGIYIYIDLPFYFLNRSIDEIADLFIHDIKEGIQGTLNKAGFVKIAADEPGITKDVEKVIRAAAIANKETKVPIITHSNAHNNTGLEQQRILTEEGVDPGKILIGHLGDTDNIDYIKKIADKGSFIGLDRYGLDLFLPVDKRNETTLRLIKDGYSDKIMISHDYCCTIDIGTAKPEYKPKLAPRWSITLIFEDTIPFLKRNGVNEEVIATIFKENPKKFFS
abundance of Burkholderiales, Pseudomonadales and Rhodospirillales [1]: significantly reduced | symptoms of infection in corn plants [2]: protected the plant from showing any symptoms of infection | Aeromonas share of the biofilm community ([3]; day 7, lactonase 1×): 79.68% | Aeromonas share of the biofilm community ([3]; day 7, lactonase 2×): 42.16%
